No end group written: not given here.
T1: HLA-DR molecule encoded by the allele DRB1*1301 (human)
T1 chain 1: not shown
T1 chain 2: not shown

T2: HLA-DR molecule encoded by the allele DRB4*0101 (human)
T2 chain 1: not shown
T2 chain 2: not shown

T3: HLA-DR molecule encoded by the allele DRB3*0101 (human)
T3 chain 1: not shown
T3 chain 2: not shown


Assays:
[1] = target: HLA-DR molecule encoded by the allele DRB1*0701 (human); test: competition ELISA vs biotinylated YKL
[2] = target: T1, HLA-DR molecule encoded by the allele …; test: competition ELISA vs biotinylated B1 21-36
[3] = target: HLA-DR molecule encoded by the allele DRB1*1101 (human); test: competition ELISA vs biotinylated HA 306-318
[4] = target: HLA-DR molecule encoded by the allele DRB5*0101 (human); test: competition ELISA vs biotinylated HA 306-318
[5] = target: HLA-DR molecule encoded by the allele DRB1*0301 (human); test: competition ELISA vs biotinylated MT 2-16
[6] = target: T2, HLA-DR molecule encoded by the allele …; test: competition ELISA vs biotinylated E2/E168
[7] = target: HLA-DR molecule encoded by the allele DRB1*0101 (human); test: competition ELISA vs biotinylated HA 306-318
[8] = target: HLA-DR molecule encoded by the allele DRB1*0401 (human); test: competition ELISA vs biotinylated HA 306-318
[9] = target: T3, HLA-DR molecule encoded by the allele …; test: competition ELISA vs biotinylated Lol 191-210
[10] = target: HLA-DR molecule encoded by the allele DRB1*1501 (human); test: competition ELISA vs biotinylated A3 152-166
[11] = target: T1, HLA-DR molecule encoded by the allele …; test: competition ELISA, nonbiotinylated peptide vs its biotinylated form

Binder	IC50 [1]	IC50 [2]	IC50 [3]	IC50 [4]	IC50 [5]	IC50 [6]	IC50 [7]	IC50 [8]	IC50 [9]	IC50 [10]	IC50 [11]
SRLAFHHVARELHPE (modifications not checked) [Nef13.4 peptide (positions 187-201 of the HIV-1 Nef protein, Bru strain), P03406 187-201]	225 nM	350 nM	6 nM	300 nM							
FHHVARELHPEYFKN (modifications not checked) [Nef13.6 peptide (positions 191-205 of the HIV-1 Nef protein, Bru strain), P03406 191-205]	2500 nM	3000 nM	550 nM	8000 nM	700 nM						
EWRFDSRLAFHHVAREL (modifications not checked) [Nef13 peptide (positions 182-198 of the HIV-1 Nef protein, Bru strain), P03406 182-198]	150 nM	750 nM	48 nM	10 nM	55 nM	6330 nM	5000 nM	3250 nM	250 nM		
MGGKWSKSSVVGWPTVRERMRRAEPAADGVGAASRD (modifications not checked) [Nef1 peptide (positions 1-36 of the HIV-1 Nef protein, Bru strain), P03406 1-36]	40 nM	325 nM	550 nM	400 nM		2500 nM	700 nM	250 nM		40 nM	
VPVEPDKVEEANKGE (modifications not checked) [Nef10.5 peptide (positions 146-160 of the HIV-1 Nef protein, Bru strain), P03406 146-160]					2500 nM		550 nM	2000 nM			
WCYKLVPVEPDKVEE (modifications not checked) [Nef10.3 peptide (positions 141-155 of the HIV-1 Nef protein, Bru strain), P03406 141-155]	250 nM		350 nM	1500 nM		1030 nM	850 nM	250 nM			
WRFDSRLAFHHVARE (modifications not checked) [Nef13.3 peptide (positions 183-197 of the HIV-1 Nef protein, Bru strain), P03406 183-197]	900 nM	250 nM	11 nM	15 nM	567 nM				5000 nM		
TERVRLVTRHIYNREE (not fully specified) [B1 21-36 peptide, nonbiotinylated]											330 nM
TQGYFPDWQNYTPGPG (modifications not checked) [Nef8 peptide (positions 117-132 of the HIV-1 Nef protein, Bru strain), P03406 117-132]								8000 nM	120 nM		
PTVRERMRRAEPAAD (modifications not checked) [Nef1.4 peptide (positions 14-28 of the HIV-1 Nef protein, Bru strain), P03406 14-28]		750 nM	1250 nM				1400 nM				
DPEREVLEWRFDSRLA (modifications not checked) [Nef12 peptide (positions 175-190 of the HIV-1 Nef protein, Bru strain), P03406 175-190]	700 nM		125 nM		3500 nM	275 nM		2500 nM	145 nM	13 nM	
LIHSQRRQDILDLWI (modifications not checked) [Nef6 peptide (positions 100-114 of the HIV-1 Nef protein, Bru strain), P03406 100-114]			3000 nM			1750 nM				1750 nM	
REVLEWRFDSRLAFH (modifications not checked) [Nef13.1 peptide (positions 178-192 of the HIV-1 Nef protein, Bru strain), P03406 178-192]	350 nM	867 nM	8 nM		125 nM				28 nM		
GVRYPLTFGWCYKLVP (modifications not checked) [Nef9 peptide (positions 132-147 of the HIV-1 Nef protein, Bru strain), P03406 132-147]	5500 nM			8000 nM			8.5 nM			1500 nM	
DKVEEANKGENTSLL (modifications not checked) [Nef10.6 peptide (positions 151-165 of the HIV-1 Nef protein, Bru strain), P03406 151-165]				1500 nM							
LEKHGAITSSNTAATNAACAWLEAQEEEEVGFPVT (modifications not checked) [Nef3 peptide (positions 37-71 of the HIV-1 Nef protein, Bru strain), P03406 37-71]	3000 nM		2000 nM			8000 nM	2500 nM	70 nM			

Binder	IC50 [1]	IC50 [2]	IC50 [3]	IC50 [4]	IC50 [5]	IC50 [6]	IC50 [7]	IC50 [8]	IC50 [9]	IC50 [10]	IC50 [11]
YKLVPVEPDKVEEAN (modifications not checked) [Nef10.4 peptide (positions 143-157 of the HIV-1 Nef protein, Bru strain), P03406 143-157]	2250 nM				1470 nM	1730 nM	9000 nM	2750 nM			
PAADGVGAASRDLEK (modifications not checked) [Nef2 peptide (positions 25-39 of the HIV-1 Nef protein, Bru strain), P03406 25-39]					4250 nM						
SSVVGWPTVRERMRR (modifications not checked) [Nef1.2 peptide (positions 8-22 of the HIV-1 Nef protein, Bru strain), P03406 8-22]		700 nM	7500 nM							200 nM	
LTFGWCYKLVPVEPD (modifications not checked) [Nef10.1 peptide (positions 137-151 of the HIV-1 Nef protein, Bru strain), P03406 137-151]	650 nM		95 nM	4500 nM		2200 nM	150 nM	2000 nM			
LEWRFDSRLAFHHVA (modifications not checked) [Nef13.2 peptide (positions 181-195 of the HIV-1 Nef protein, Bru strain), P03406 181-195]	933 nM	350 nM	18 nM	6 nM	73 nM				60 nM		
EANKGENTSLLHPVSLHGMDDPEREVLEWRF (modifications not checked) [Nef11 peptide (positions 155-185 of the HIV-1 Nef protein, Bru strain), P03406 155-185]	3750 nM		3000 nM	3000 nM		450 nM	2000 nM			50 nM	
ERMRRAEPAADGVGA (modifications not checked) [Nef1.5 peptide (positions 18-32 of the HIV-1 Nef protein, Bru strain), P03406 18-32]							2750 nM				
VGWPTVRERMRRAEP (modifications not checked) [Nef1.3 peptide (positions 11-25 of the HIV-1 Nef protein, Bru strain), P03406 11-25]		700 nM									
FGWCYKLVPVEPDKV (modifications not checked) [Nef10.2 peptide (positions 139-153 of the HIV-1 Nef protein, Bru strain), P03406 139-153]	120 nM		250 nM	900 nM		605 nM	85 nM	250 nM			
LTFGWCYKLVPVEPDKVEEANKGENTSLLHPV (modifications not checked) [Nef10 peptide (positions 137-168 of the HIV-1 Nef protein, Bru strain), P03406 137-168]	65 nM		45 nM	250 nM	175 nM	55 nM	650 nM	150 nM	3500 nM	1250 nM	
WIYHTQGYFPDWQNYT (modifications not checked) [Nef7 peptide (positions 113-128 of the HIV-1 Nef protein, Bru strain), P03406 113-128]	4000 nM								75 nM	9000 nM	
DLSHFLKEKGGLEGL (modifications not checked) [Nef5 peptide (positions 86-100 of the HIV-1 Nef protein, Bru strain), P03406 86-100]				8000 nM			6000 nM				
LAFHHVARELHPEYF (modifications not checked) [Nef13.5 peptide (positions 189-203 of the HIV-1 Nef protein, Bru strain), P03406 189-203]	250 nM	600 nM	8 nM	600 nM	1470 nM						
GKWSKSSVVGWPTVR (modifications not checked) [Nef1.1 peptide (positions 3-17 of the HIV-1 Nef protein, Bru strain), P03406 3-17]	48 nM	3000 nM	1750 nM				1250 nM	700 nM		150 nM	
AAVDLSHFLKEKGGL (modifications not checked) [Nef4.7 peptide (positions 83-97 of the HIV-1 Nef protein, Bru strain), P03406 83-97]			7500 nM	3250 nM			500 nM				
